Source: the nanobody polyreactivity screen of Harvey et al. (2022)

experiment: yeast display, Sf9 membrane polyspecificity reagent, FACS + sequencing; frameworks hold sequencing errors
Method in brief: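 Nanobodies came from a synthetic yeast display library in Saccharomyces cerevisiae BJ5465, induced with galactose for 36–48 hours and stained for 1 hour at 4 °C with 10% biotinylated, detergent-solubilized Sf9 membrane reagent. Cells were enriched on streptavidin microbeads and then FACS-sorted, with low and high (top ~1%) gates set on anti-HA fluorescence for expression and streptavidin fluorescence for reagent binding. Each polyreactivity label reflects the gate a clone came from. Genes were amplified by colony PCR, sequenced by MiSeq 2 × 250 and filtered by CDR length.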

Row | Sequence | polyreactivity (PSR sort gate)
1 | QVQLVESGGGLVQAGGSLRLSCAASGRIFGSYAMGWYRQAPGKERELVAAITTDDSTNYADSVKGRFTISRDNAKNTVYLQMNSLKPEDTAVYYCNAERWDELFDSWGQGTQVTVSS | low polyreactivity
2 | QVQLVETRGGLVQAGGRLRLSCAASGGIFPVNAMGWYRQAPGKERELVAAISWSVGRTYYADSVKGRFTISRDNAKNTVYLQMISLKREDTAVYYCAAEWFGVYRRYKYDYCGQGTQVTVSS | low polyreactivity
3 | QVQLVESAGGLVQAGGSLRLSCAASGICAVYARGWYRQAPGKERELVAAITLSGGSTSYADSVKGRFTISRDNAKNTVYLQMNSLNPAATEVYYCAVLIRYPYYYWGQGTQVTVSS | low polyreactivity
4 | QVQLVESGGGLVQAGGSLRLSGAASGFIFSYYAMGWYRQAPGKERELVAAITSGGSTNYADSVKGRFTISRDNAKNTVYLQMNSLKPEDTAVYYCNALYHWGYPHEYNYWGQGTQVTVSS | low polyreactivity
5 | QVQLVESGGGLVQAGGSLRLSCAASGSIFFYYAMGRYRQARGKERQLVAAISYSDGTTYYADSVKGRFTISRDNAKNTVYLQMNSLKPEDTAVYYCAADLWVGLVTLWDGYVQYDYWGQGTQVTVSS | low polyreactivity
6 | QVQLVESGGGLVQAGGSLRLSCAASGRIFATNAMGWSRPAPGTERELVAGISDGGGSTYYAASVKGRFTISRDNAKNTVYLQMNRLKPEDTEVYYCAARVLDWRGDIHDSEYWGQGTQVTVSS | low polyreactivity
7 | QVQLVESGGGLVQAGGSLRLSCAASGFTFYTYTMGWYRQAPGKERELVAVITSRGTRTYYADSVKGRFTISRDNAKNTVYLQMNSLKPEDTAVYYCNKGAGWSFGYWGQGTQVTVSS | high polyreactivity
8 | QVQLVESGGGLVQAGGSLRLSCAASGSTFTPYVMGWYRQAPGKEREMVASITGGGGSTYADSVKGRFTISRDNAKNTVYVQMNSLKPEDTAVYYCAAELYRSNVYHYDYWGQGSQVTVSS | high polyreactivity
9 | QVQLVESGGGLVQAGGSLRLSCAASGRTYGVYAMGWYRQAPGKERELVATITLSGGRTYYAHSVKGRFTISRDNAKNTVYLEMNSLKPEDSAVYYCNARFSYYYGFRASRLDYWGQGTQVNVSS | high polyreactivity
10 | QDQHVESGGGLVQAGGSLRLSCAASGSTFYIYARGWYRQAPGKERELVARISGSGGSTYYADSVKGRFTISRDNAKNTVYLQMNSLKPEDTAVYYCAAEDIYKYYQYYAFPYYRYDYWGQGTQVTVSS | low polyreactivity
11 | QVQLVESGGGLVQAGGSLRLSCAASGNTFRIYAMGWYRQAPGKERELVAAISQSGGSTYYADSVKVRFTISRDNAKYTVYLQMNSLKPEDTAVYYCQLIRRGHDYWGQGTQVTVSS | high polyreactivity
12 | QVQLVESGGGLVQAGGSLRLSCAASGGNFGRYAMGWYRQAPGKERELVADINWSGGANTNYADSVKGRFTISRDNAKNTVYLQMNSLKPEDTAVYYCAAPSYFTHSGRFDYWGQGTQVTVSS | low polyreactivity
13 | QVQLLESGGGLVQAGGSLRLSCAASGLIFWGYAMGWYRQAPGKERELVAAINATGGRTYYADSVKGRFTISRDNAKNTVYLQMNSLKPEDTAVYYCAAYSGFYDSYDYWGQGTQVTVSS | low polyreactivity
14 | QVQLVESGGGLVQAGGSLRLSCAASGSTFSSNTMGWYRQAPGKERELVAAITTGGDTYYADSVKGRFTISRDNAKNTVYLQMNSLKPEDTAVYYCAATPTYWYLWSPYDYWGQGTQVTVSS | low polyreactivity
15 | QVQLVESGGGLVQAGGSLRLSCAASGRISVFNAMGWYRQAPGKERELVAAITSGGSTNYADSVKGRFTISRDNAKNTVYLQMNSLKPEDTAVYYSNADVYHSHEPHYDYWGQGTQVTVSS | low polyreactivity
16 | QVQLVESGGGLVQEGGILRLSCAASGLTFYGYAMGWYRQAPGKERELVAAITSGDSTYYADSVKGRFTISRDNAKNTVYLQMNSLKPEDTAVYYCAAVGGYPRYGYWGQGTQVTVSS | high polyreactivity
17 | QVQLVDSGGGLVQAGGSLRLSCAASGRTFTRNAMGWYRPATRQERELLAAISFTGGRTYYADSVKGRFTISRDNAKNTVYLQMNSLNPEDTAVYYCNTTSRRSQVGYSTRYDYWGQGTQVTVSS | high polyreactivity
18 | QDQLVESRGGLVQAGGSLRLSCAASGSTFVNNAMGWYRQAPGKERELVAAIRSSDGRTYYADSVKGRFTISRDNAKNTVYLQMNSLKPEDSAVYYCATAVGTKYRTRIFEFYYWGQGTQVTVSS | high polyreactivity
19 | QVQLVESGGGLVQAGGSLRLSCAASGIIFKIYAMGWYRQAPGKERELVAAITRSGTRTYYADSVKGRFTISRDNAKNTVYLQMNSLKPEDTAVYYCNAYTTLAYDLDYWGQGTQVTVSS | high polyreactivity
20 | QVQLVESGGGLVQAGGSLRLSCAASGFIFYLNVMGWYRQAPGKERELVATITSGGSTNYADSVKGRFTISRDNAKNTVYLQMNSLKPEDTAVYYCAAEQVWYDWEYDYWGQGTQVTVSS | high polyreactivity
21 | QVHLVESGGGLVQAGGSLRLSCAASGSIFSGNTMGWYRQAPGKERELVAAISGGGSTNYADSVKGRFTISRDNAKNTVYLQMNSLKPEDTAVYYCAKDWSLGASRMDYWGQGTQVTVSS | low polyreactivity

Row | Sequence | polyreactivity (PSR sort gate)
22 | QVQLVESGGGLVQAGGSLRLSCAASGFTFWQYAMGWYRQAPGKERELVAAISGSGSSTYYADSVKGRFTISRDNAKNTVYFQMNSLKPEDTAVYYCATAISRYGRYYYWGQGTQVTVSS | high polyreactivity
23 | QVQLVESGGGLVQAGGSLRLTCAAYGRIFRGYAMGWYRQAPGKERDLVAAISGSGGSTYNADSVKGRFTISRDNAKNTVYLQMNSLKPEDTAVYYCNAGWYFYGETTDDYWGQGTQVTVSS | low polyreactivity
24 | QVQLVESGGGLVQAGGSLRLSCAASGNISLPYTMGWYRQAPGKERELVAAISWDGGRTYYADSVKGRFTISRDNAKNTDYLQMNSLKPEDTAVYYCGARFFLVTLDYWGQGTQVTVSS | low polyreactivity
25 | QVQLVESGGGLVQAGGSLRLSCAASGGIFSYNAMGWYRQAPGKERELVAAITSSGSTYYADSVKGRFTISRDNAKNTVYLQMNSLKPEDTAVYYCNAVKRNSWIRGYWGQGTQVTVSS | low polyreactivity
26 | QVQLVESGGGLVQAGGSLRLSCAASGSTFWYYAMGWYRQAPGKERELVAAISVRGGSTYYADSVKGRFTISRDNAKNTVYLQMNSLKPEETGVYYCAAVSYKSHRYDYWGQGTQVTVSS | high polyreactivity
27 | QVQLVESGGCLVQAGGSLRLSCAASGSIFYSYAMGWYRQAPGKEMELVADISSDGSTNYADSVKGRFTISRDNAKNTVYLQMNSLKPEDTAVYYCAKKPSSARYVTIGFDYWGQGTQVTVSS | low polyreactivity
28 | QVQLVESGGGLVQAGGSLRLSCAASGITFAGYTMGWYRQAPGKERELVAAISWRTGSTYYADSVKGRFTISRDTAKNTVYLQMNSLKPEDTAVYYCAARVPSPYVATYYYWGQGTQVTVSS | high polyreactivity
29 | QVQLVESGGGLVQAGGSLRLSCAASGFIFTYYDMGWYRQAPGKERELVASISWDGGRTYYADSVKGRFTISRDNAKNTVYLQMNSLKPEDTAVYYCAKRLGGSPIQARGDYWGQGTQVTVSS | low polyreactivity
30 | QVQLVESGGGLVQAGGSLSLSCAASGLTFFGYAIGWYRQAPGKEREVVAAISTSGTRTYYADSVKGRFTISRDNAKNTVYLQMNSLKPEDTAVYYCATVRYQEYDYWGQGTQVTVSS | high polyreactivity
31 | QVQLVESGGGLVQAAGSLRLSCAASGSIFIQYAMGWYRQAPGKERELVAAITRRGGRTYYADSVKGRFTISRDNAKNTVYLQLNSLKPEDTAVYYCNAVPIGQWAYDYWGQGTQVTVSS | high polyreactivity
32 | QVQLVESGGGLVQAGGSLRLSCAASGSIFEYNVMGWYRQAPGKERELVAAINSGGSTYYADSVKGRFTISRDNAKNTVYLQMNSLKPEDTAVYYCAARQRPNRYGYYYWGQGTQVTVSS | high polyreactivity
33 | QVQLVESGGGLVQAGGSLRVSCAASGSIFSSYAMGWYRQAPGKDRELVAVINSGGSTNYADSVKGRFTISRDNAKNTVYFQMNTLKPEDTAVYYCNAYGGTFHNSAAEFDYWGQGTQVSVSS | low polyreactivity
34 | QVQLVESGGGLVQAGGSLRLSCAASGLTFDKNVMGWYRQAHGKERELVAAISRSGGTTYYADSVKGRFTISRDNAKYTVYLQMNSLKPEDTAVYYCAKRAWTGYGYYYWGQGTQVTVSS | high polyreactivity
35 | QVQLVESGGGFVQAGGSLRLSCAASGSTFDGYAMGWYRQAPGKERELVAAITSSDGSTYYADSVKGRFTISRDNAKNTVYLQMNSLKPEDTAGYSCAAAPDWKDSLPPDMDYWGQGTQVTVSS | low polyreactivity
36 | QVQLVESGGGLVQSGGSLRLSCAASGRIFRKYVMAWYRPAPGNERELVATISNRVGSTYYADSVKGRFTISRDKAKNTVYLQMNSLKPEDTAVYYCAAVSSYTAYDYWGQGTQVTVSS | high polyreactivity
37 | QVQHVESGGGLVQAGGSLRLSCAASAFTFRFYAMGWYRQAPAKEMELVAAISWSGTSTYYADSVKGRFTLSRDNAKNTVYLQMNSLIQDDTAVYYCATQYRRRQRKYDYWGQGTQVTVSS | high polyreactivity
38 | QVQLVESGGGLVQAGGSLRLSCAASGSTFQSYAMGWYRPAPGKERELVATITWSSGRTYYADSVKGRFTISRDNAKNTVYLQMKSLKPEDTAVYYCAARKRPFYKYDYWGQGTQVTVSS | high polyreactivity
39 | QVQLVESGGGLVQAGGSLRLSCAASGSILSYYAMGWYRQAPGKERELVAAISKSGGRTYYADSVKGRFTISRDNAKNTVYLQMNSLKPEDTAVYYCAAPATYKYDYWGQGTQVTVSS | high polyreactivity
40 | QVQLVESGGGLVQAGGSLRLSCAASGSIFAVYAMRCYRQAPAKARELVATITGIDTGTYYADSVKGRCTISRDIAKNTVYLHMNILKPEDTAVYYCAAVCRYRHLRFYYWGQGTQGTVSS | high polyreactivity
41 | QVQLVESGVGLVQAARSLRLSCAASGRTFGSYAMGWYRQAPGKEREFVAGISYGGGRTYYADSVKGRFTISRDTAKNTVYLQMNSLKPADTAVYYCAADGVYRYNYPYLYTYDYWGQGTQVTVSS | low polyreactivity
